The target in data set [1] is Drp1 (full-length human Drp1 isoform 3, Drp1 000) (human) (UniProt O00429). The data set is described as follows: TIRF microscopy.
Data set [2] has as its target Drp1/actin bundles (actin filaments prebundled by Cy5-Drp1) (human | rabbit) (UniProt O15027). The data set is described as follows: TIRF microscopy.
The data set “AUC” deals with the molecule itself. As to the kind of experiment: AUC.

The results in this text go back to PMC8684745 (Molecular Biology of the Cell, 2021).

By stoichiometry N is commonly meant a count of units in the complex or per binding partner.

Sequence of Drp1/actin bundles (actin filaments prebundled by Cy5-Drp1) (human | rabbit) (O15027 whole entry): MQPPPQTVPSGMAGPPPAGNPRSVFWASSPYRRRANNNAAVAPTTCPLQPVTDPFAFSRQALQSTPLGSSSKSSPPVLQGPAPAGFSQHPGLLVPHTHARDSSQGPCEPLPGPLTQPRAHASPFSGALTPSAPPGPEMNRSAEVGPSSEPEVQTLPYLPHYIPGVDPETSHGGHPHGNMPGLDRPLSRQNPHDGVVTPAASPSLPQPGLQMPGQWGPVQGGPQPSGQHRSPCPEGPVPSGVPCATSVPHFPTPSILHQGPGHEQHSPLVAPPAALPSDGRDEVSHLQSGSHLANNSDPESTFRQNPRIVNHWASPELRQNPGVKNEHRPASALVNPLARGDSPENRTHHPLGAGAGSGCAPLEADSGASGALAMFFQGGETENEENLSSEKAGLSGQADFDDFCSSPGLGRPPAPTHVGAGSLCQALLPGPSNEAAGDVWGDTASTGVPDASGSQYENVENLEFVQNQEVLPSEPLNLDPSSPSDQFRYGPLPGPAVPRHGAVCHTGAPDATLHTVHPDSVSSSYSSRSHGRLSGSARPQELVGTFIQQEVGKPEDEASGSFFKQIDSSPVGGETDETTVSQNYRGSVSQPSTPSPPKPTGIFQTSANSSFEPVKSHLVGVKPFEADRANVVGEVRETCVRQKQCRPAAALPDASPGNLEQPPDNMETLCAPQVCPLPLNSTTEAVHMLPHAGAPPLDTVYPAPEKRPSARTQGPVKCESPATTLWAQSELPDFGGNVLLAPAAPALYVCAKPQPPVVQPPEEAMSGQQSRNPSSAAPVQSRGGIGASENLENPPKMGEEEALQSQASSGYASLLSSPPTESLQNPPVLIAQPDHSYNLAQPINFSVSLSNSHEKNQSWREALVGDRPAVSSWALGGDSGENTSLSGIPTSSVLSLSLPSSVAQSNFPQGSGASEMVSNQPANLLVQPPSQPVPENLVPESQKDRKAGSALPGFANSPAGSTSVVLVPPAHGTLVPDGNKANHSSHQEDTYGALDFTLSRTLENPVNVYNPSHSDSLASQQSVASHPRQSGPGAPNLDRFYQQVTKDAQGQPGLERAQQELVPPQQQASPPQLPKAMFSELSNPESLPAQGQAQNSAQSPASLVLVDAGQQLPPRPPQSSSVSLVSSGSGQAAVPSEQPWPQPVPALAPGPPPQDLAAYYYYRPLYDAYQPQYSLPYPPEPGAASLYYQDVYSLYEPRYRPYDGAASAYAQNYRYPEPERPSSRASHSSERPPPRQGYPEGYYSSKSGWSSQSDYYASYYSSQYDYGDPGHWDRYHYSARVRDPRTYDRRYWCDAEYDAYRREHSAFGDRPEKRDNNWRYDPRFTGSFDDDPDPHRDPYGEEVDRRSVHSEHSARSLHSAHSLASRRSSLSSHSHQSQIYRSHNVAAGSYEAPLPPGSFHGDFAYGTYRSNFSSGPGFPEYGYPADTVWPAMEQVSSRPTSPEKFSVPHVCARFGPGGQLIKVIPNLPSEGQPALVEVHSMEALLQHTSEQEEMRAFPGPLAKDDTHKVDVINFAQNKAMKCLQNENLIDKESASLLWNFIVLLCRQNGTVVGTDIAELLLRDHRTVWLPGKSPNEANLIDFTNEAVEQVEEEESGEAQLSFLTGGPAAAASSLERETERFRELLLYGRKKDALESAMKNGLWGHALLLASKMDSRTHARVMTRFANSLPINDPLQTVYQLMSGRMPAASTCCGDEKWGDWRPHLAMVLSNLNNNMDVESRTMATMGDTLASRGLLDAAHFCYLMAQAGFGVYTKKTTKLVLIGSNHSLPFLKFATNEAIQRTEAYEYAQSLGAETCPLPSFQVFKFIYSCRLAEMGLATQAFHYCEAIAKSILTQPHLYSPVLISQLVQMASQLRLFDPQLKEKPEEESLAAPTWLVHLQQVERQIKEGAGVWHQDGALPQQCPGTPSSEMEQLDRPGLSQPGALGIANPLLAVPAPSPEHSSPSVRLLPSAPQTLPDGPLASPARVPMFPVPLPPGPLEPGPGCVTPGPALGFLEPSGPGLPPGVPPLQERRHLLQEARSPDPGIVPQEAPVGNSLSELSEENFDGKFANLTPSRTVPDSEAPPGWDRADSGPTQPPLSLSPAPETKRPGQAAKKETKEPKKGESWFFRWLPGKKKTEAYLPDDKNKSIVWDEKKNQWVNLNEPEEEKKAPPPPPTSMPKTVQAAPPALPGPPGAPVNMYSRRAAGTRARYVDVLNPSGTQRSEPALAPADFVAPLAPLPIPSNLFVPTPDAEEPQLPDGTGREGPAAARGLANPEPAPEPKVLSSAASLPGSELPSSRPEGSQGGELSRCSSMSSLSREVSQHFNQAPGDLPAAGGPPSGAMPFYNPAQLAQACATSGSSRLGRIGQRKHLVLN

Molecule “Mff-L2P (Mff-∆TM with L179P and L186P) (from UniProt Q9GZY8-4 1-218) (domain or fragment)” registered a fold less binding than Mff-∆TM in data set [1] of 5 fold.
As for “Mff-∆TM (cytoplasmic region of human Mff isoform 4, C-terminally 6His-tagged) (from UniProt Q9GZY8-4 1-218) (domain or fragment)”, in data set [2], the percent of Mff-∆TM remaining after wash is 50%.

B1: GFP-CC (CC domain of human Mff isoform 4, amino acids 149–197, on the C-terminus of GFP) (domain or fragment)
chain: SGGGGISNIDTTIEGTSDDLTVVDAASLRRQIIKLNRRLQLLEEENKERAKREGGGS
In the case of B1, in the data set “AUC”, the “stoichiometry N” value was found to be 3.
